Measurements from article PMC8567388.

Experiments:
[1] = target: PSD-95 PDZ1 6xHis (human); assay: ITC
[2] = target: PSD-95 PDZ1-2 6xHis (human); assay: ITC

Kd [1]: 100 µM | Kd [2]: 12 µM
B1: Stargazin_CT (aa 203-323) (domain or fragment)
chain: DRHKQLRATARATDYLQASAITRIPSYRYRYQRRSRSSSRSTEPSHSRDASPVGVKGFNTLPSTEISMYTLSRDPLKAATTPTATYNSDRDNSFLQVHNCIQKDSKDSLHANTANRRTTPV
